{"source": "patent US20080227128", "key": {"[1]": {"test_system": "T1, KPLGSDDSLADY peptide", "T1 sequence": "KPLGSDDSLADY"}, "[2]": {"test_system": "T2, MEK substrate (MEKSBS)", "T2 sequence": "XDPDHDHTGFLTEYVATRW"}}}
{"substance": "purified MEK", "values": [{"measurement": "phosphorylation in an in vitro kinase assay", "setting": "[1]", "value": "are both phosphorylated in the presence of purified MEK in an in vitro kinase assay"}, {"measurement": "phosphorylation in an in vitro kinase assay", "setting": "[2]", "value": "are both phosphorylated in the presence of purified MEK in an in vitro kinase assay"}]}
